Assay results from patent US20250197483A1 (US Dept. of Health and Human Services, published 2025).

Target: T1, FcRn/β2m heterodimer (UniProt P55899 24-297; P61769 21-119)
T1 construct: also called His-tagged FcRn/β2m; neonatal Fc receptor
Assay: BLI (Octet), pH 7.4: Ni-NTA biosensors coated with His-tagged FcRn/β2m dipped into wells with the antibody as analyte
Source text: Fc-FcRn binding kinetics by bio-layer interferometry. We used Octet HTX system (ForteBio) to measure the Fc-FcRn binding kinetics with FcRn/2m as ligand. […] For reference, we repeated the entire steps mentioned above but with blank Ni-NTA biosensors. Binding kinetic sensograms were globally fitted with 1:1 model and double referencing to extract kinetic parameters.

T1 sequence (P55899 24-297 limits assumed, chain 1 of 2): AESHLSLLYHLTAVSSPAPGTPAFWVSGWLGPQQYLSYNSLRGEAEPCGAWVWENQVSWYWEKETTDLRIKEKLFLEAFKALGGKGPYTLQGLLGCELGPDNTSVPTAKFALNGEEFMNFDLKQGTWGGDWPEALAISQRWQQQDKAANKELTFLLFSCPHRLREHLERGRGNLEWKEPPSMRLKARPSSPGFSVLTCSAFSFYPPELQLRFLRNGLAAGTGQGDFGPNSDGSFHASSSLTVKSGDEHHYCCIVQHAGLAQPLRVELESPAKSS
T1 sequence (P61769 21-119 limits assumed, chain 2 of 2): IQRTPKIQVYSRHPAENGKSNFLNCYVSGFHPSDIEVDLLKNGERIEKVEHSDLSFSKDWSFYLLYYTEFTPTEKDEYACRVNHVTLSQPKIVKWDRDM

Binder | Kd
VRC07-523LS.v1 (antibody, human IgG1, kappa) heavy: not shown light: LTQSPGTLSLSPGETAIISCRTSQYGSLAWYQQRPGQAPRLVIYSGSTRAAGIPDRFSGSRWGPDYNLTISNLESGDFGVYYCQQYEFFGQGTKVQVDIKRTVAAPSVFIFPPSDEQLKSGTASVVCLLNNFYPREAKVQWKVDNALQSGNSQESVTEQDSKDSTYSLSSTLTLSKADYEKHKVYACEVTHQGLSSPVTKSFNRGEC | 0.93 µM
VRC07-523LS.v11 (antibody, human IgG1, kappa) heavy: not shown light: LTQSPGTLSLSPGETAIISCDTSQYGSLAWYQQRPGQAPRLVIYSGSTRAAGIPDRFSGSRWGPDYNLTISNLESGDFGVYYCQQYEFFGQGTKVQVDIKRTVAAPSVFIFPPSDEQLKSGTASVVCLLNNFYPREAKVQWKVDNALQSGNSQESVTEQDSKDSTYSLSSTLTLSKADYEKHKVYACEVTHQGLSSPVTKSFNRGEC | 3.96 µM
VRC07-523LS.v34 (antibody, human IgG1, kappa) heavy: not shown light: LTQSPGTLSLSPGETAIISCETSQYGSLAWYQQRPGQAPRLVIYSGSTRAAGIPDRFSGSRWGPDYNLTISNLESGDFGVYYCQQYEFFGQGTKVQVDIKRTVAAPSVFIFPPSDEQLKSGTASVVCLLNNFYPREAKVQWKVDNALQSGNSQESVTEQDSKDSTYSLSSTLTLSKADYEKHKVYACEVTHQGLSSPVTKSFNRGEC | 6 µM
